In doi:10.1101/2021.01.30.428974:

Assays:
[1] = target: Murine polyomavirus VP1 with the putative nuclear localisation signal deleted (Murine polyomavirus) (UniProt P03090); experiment: co-sedimentation
[2] = target: wild-type Murine polyomavirus VP1 (Murine polyomavirus) (UniProt P03090); experiment: co-sedimentation

Substance: VP2C-GFP
- stoichiometry N (GFP per ΔVP1 VLP) [1]: 72
- stoichiometry N (GFP per wtVP1 VLP) [2]: 59
